Measurements: PMC9352680, “A comprehensive thermodynamic model for RNA binding by the Saccharomyces cerevisiae Pumilio protein PUF4”

T1: PUF4 RNA-binding domain (Saccharomyces cerevisiae, UniProt P25339 537-888)
T1 sequence: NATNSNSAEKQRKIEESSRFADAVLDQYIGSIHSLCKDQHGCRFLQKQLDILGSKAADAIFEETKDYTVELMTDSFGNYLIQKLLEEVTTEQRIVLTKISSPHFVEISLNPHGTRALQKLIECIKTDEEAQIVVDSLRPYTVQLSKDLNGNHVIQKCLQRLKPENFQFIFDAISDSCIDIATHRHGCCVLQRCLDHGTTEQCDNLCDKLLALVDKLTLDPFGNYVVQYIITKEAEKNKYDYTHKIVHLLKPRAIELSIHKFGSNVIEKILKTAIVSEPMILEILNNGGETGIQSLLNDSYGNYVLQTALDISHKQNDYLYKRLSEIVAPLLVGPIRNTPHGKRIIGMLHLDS

B1: Ie_S1_P5E.1_K5.1_C5.1_H5.1_A5.1_[+7TTCCT]_F5.1_T5.1 (ssRNA)
RNA: UCUCUUUGUAUUAUUCCUUUAUCUCUU
B2: Ie_S1_P5E.1_K5.1_C5.1_H5.1_A5.1_[+5TTCCT]_F5.1_T5.1 (ssRNA)
RNA: UCUCUUUGUAUUUCCUUAUUAUCUCUU
B3: Ib_S2_P3E.1_K3.1_C3.1_H3.1_[G2T]_A3.1_F3.1_[A8C]_T3.1 (ssRNA)
RNA: UUUGAUUAAUAUGAUAUCGUUCUUUCUUUUAUAUCUUCUUUCUCGAUAUCAUAUUAAUCUUU
B4: Ib_S2_P3E.1_K3.1_C3.1_H3.1_[A4C]_A3.1_F3.1_[A8C]_T3.1 (ssRNA)
RNA: UUUGAUUAAUAUGAUAUCGUUCUUUCUUGUCUAUCUUCUUUCUCGAUAUCAUAUUAAUCUUU
B5: Ib_S2_P3E.1_K3.1_C3.1_H3.1_[A4G]_A3.1_F3.1_[A8C]_T3.1 (ssRNA)
RNA: UUUGAUUAAUAUGAUAUCGUUCUUUCUUGUGUAUCUUCUUUCUCGAUAUCAUAUUAAUCUUU
B6: Ib_S2_P3E.1_K3.1_C3.1_H3.1_[T3C]_A3.1_F3.1_[A8C]_T3.1 (ssRNA)
RNA: UUUGAUUAAUAUGAUAUCGUUCUUUCUUGCAUAUCUUCUUUCUCGAUAUCAUAUUAAUCUUU
B7: Ib_S2_P3E.1_K3.1_C3.1_H3.1_[A4G]_A3.1_F3.1_[A8T]_T3.1 (ssRNA)
RNA: UUUGAUUAAUAUGAUAUCGUUCUUUCUUGUGUAUUUUCUUUCUCGAUAUCAUAUUAAUCUUU
B8: Ib_S2_P3E.1_K3.1_C3.1_H3.1_[G2C]_A3.1_F3.1_[A8T]_T3.1 (ssRNA)
RNA: UUUGAUUAAUAUGAUAUCGUUCUUUCUUCUAUAUUUUCUUUCUCGAUAUCAUAUUAAUCUUU
B9: Ie_S1_P5E.1_K5.1_C5.1_H5.1_A5.1_F5.1_[+8TC]_T5.1 (ssRNA)
RNA: UCUCUUUGUAUUAUUCUAUCUCUU
B10: Ie_S1_P5E.1_K5.1_C5.1_H5.1_A5.1_[+6CCCT]_F5.1_T5.1 (ssRNA)
RNA: UCUCUUUGUAUUCCCUAUUAUCUCUU
B11: Ie_S1_P5E.1_K5.1_C5.1_H5.1_A5.1_F5.1_[+8CC]_T5.1 (ssRNA)
RNA: UCUCUUUGUAUUAUCCUAUCUCUU
B12: Ie_S1_P5E.1_K5.1_C5.1_H5.1_A5.1_[+7CCCT]_F5.1_T5.1 (ssRNA)
RNA: UCUCUUUGUAUUACCCUUUAUCUCUU
B13: Ie_S1_P5E.1_K5.1_C5.1_H5.1_A5.1_[+6CCC]_F5.1_T5.1 (ssRNA)
RNA: UCUCUUUGUAUUCCCAUUAUCUCUU
B14: Ie_S1_P5E.1_K5.1_C5.1_H5.1_A5.1_F5.1_[+9TCTCT]_T5.1 (ssRNA)
RNA: UCUCUUUGUAUUAUUUCUCUAUCUCUU
B15: Ie_S1_P5E.1_K5.1_C5.1_H5.1_A5.1_[+6CCTCT]_F5.1_T5.1 (ssRNA)
RNA: UCUCUUUGUAUUCCUCUAUUAUCUCUU
B16: Ie_S1_P5E.1_K5.1_C5.1_H5.1_A5.1_[+7TCTC]_F5.1_T5.1 (ssRNA)
RNA: UCUCUUUGUAUUAUCUCUUAUCUCUU
B17: Ie_S1_P5E.1_K5.1_C5.1_H5.1_A5.1_F5.1_[+8TTCCT]_T5.1 (ssRNA)
RNA: UCUCUUUGUAUUAUUUCCUUAUCUCUU
B18: Ie_S1_P5E.1_K5.1_C5.1_H5.1_A5.1_F5.1_[+8TCTCT]_T5.1 (ssRNA)
RNA: UCUCUUUGUAUUAUUCUCUUAUCUCUU
B19: Ie_S1_P5E.1_K5.1_C5.1_H5.1_A5.1_F5.1_[+8CTT]_T5.1 (ssRNA)
RNA: UCUCUUUGUAUUAUCUUUAUCUCUU
B20: Ie_S1_P5E.1_K5.1_C5.1_H5.1_A5.1_F5.1_[+9TTCC]_T5.1 (ssRNA)
RNA: UCUCUUUGUAUUAUUUUCCAUCUCUU
B21: Ie_S1_P5E.1_K5.1_C5.1_H5.1_A5.1_[+6CCTC]_F5.1_T5.1 (ssRNA)
RNA: UCUCUUUGUAUUCCUCAUUAUCUCUU
B22: Ie_S1_P5E.1_K5.1_C5.1_H5.1_A5.1_F5.1_[+8TTCC]_T5.1 (ssRNA)
RNA: UCUCUUUGUAUUAUUUCCUAUCUCUU
B23: Ie_S1_P5E.1_K5.1_C5.1_H5.1_A5.1_[+7TC]_F5.1_T5.1 (ssRNA)
RNA: UCUCUUUGUAUUAUCUUAUCUCUU
B24: Ie_S1_P5E.1_K5.1_C5.1_H5.1_A5.1_[+7CCC]_F5.1_T5.1 (ssRNA)
RNA: UCUCUUUGUAUUACCCUUAUCUCUU
B25: Ie_S1_P5E.1_K5.1_C5.1_H5.1_A5.1_F5.1_[+9CCTCT]_T5.1 (ssRNA)
RNA: UCUCUUUGUAUUAUUCCUCUAUCUCUU
B26: Ie_S1_P5E.1_K5.1_C5.1_H5.1_A5.1_F5.1_[+8TTT]_T5.1 (ssRNA)
RNA: UCUCUUUGUAUUAUUUUUAUCUCUU
B27: Ie_S1_P5E.1_K5.1_C5.1_H5.1_A5.1_F5.1_[+8CCCT]_T5.1 (ssRNA)
RNA: UCUCUUUGUAUUAUCCCUUAUCUCUU
B28: Ie_S1_P5E.1_K5.1_C5.1_H5.1_A5.1_F5.1_[+8T]_T5.1 (ssRNA)
RNA: UCUCUUUGUAUUAUUUAUCUCUU
B29: Ie_S1_P5E.1_K5.1_C5.1_H5.1_A5.1_[+5CCTCT]_F5.1_T5.1 (ssRNA)
RNA: UCUCUUUGUAUCCUCUUAUUAUCUCUU
B30: Ie_S1_P5E.1_K5.1_C5.1_H5.1_A5.1_[+7TT]_F5.1_T5.1 (ssRNA)
RNA: UCUCUUUGUAUUAUUUUAUCUCUU
B31: Ie_S1_P5E.1_K5.1_C5.1_H5.1_A5.1_F5.1_[+8CTC]_T5.1 (ssRNA)
RNA: UCUCUUUGUAUUAUCUCUAUCUCUU
B32: Ie_S1_P5E.1_K5.1_C5.1_H5.1_A5.1_[+7CCCTT]_F5.1_T5.1 (ssRNA)
RNA: UCUCUUUGUAUUACCCUUUUAUCUCUU
B33: Ie_S1_P5E.1_K5.1_C5.1_H5.1_A5.1_F5.1_[+8CCC]_T5.1 (ssRNA)
RNA: UCUCUUUGUAUUAUCCCUAUCUCUU
B34: Ie_S1_P5E.1_K5.1_C5.1_H5.1_A5.1_F5.1_[+8TTC]_T5.1 (ssRNA)
RNA: UCUCUUUGUAUUAUUUCUAUCUCUU
B35: Ie_S1_P5E.1_K5.1_C5.1_H5.1_A5.1_[+6TCTCT]_F5.1_T5.1 (ssRNA)
RNA: UCUCUUUGUAUUUCUCUAUUAUCUCUU
B36: Ie_S1_P5E.1_K5.1_C5.1_H5.1_A5.1_F5.1_[+9CCT]_T5.1 (ssRNA)
RNA: UCUCUUUGUAUUAUUCCUAUCUCUU
B37: Ie_S1_P5E.1_K5.1_C5.1_H5.1_A5.1_[+7CTCT]_F5.1_T5.1 (ssRNA)
RNA: UCUCUUUGUAUUACUCUUUAUCUCUU
B38: Ie_S1_P5E.1_K5.1_C5.1_H5.1_A5.1_[+5CCCTT]_F5.1_T5.1 (ssRNA)
RNA: UCUCUUUGUAUCCCUUUAUUAUCUCUU
B39: Ie_S1_P5E.1_K5.1_C5.1_H5.1_A5.1_[+7CT]_F5.1_T5.1 (ssRNA)
RNA: UCUCUUUGUAUUACUUUAUCUCUU
B40: Ie_S1_P5E.1_K5.1_C5.1_H5.1_A5.1_[+7TTCC]_F5.1_T5.1 (ssRNA)
RNA: UCUCUUUGUAUUAUUCCUUAUCUCUU
B41: Ie_S1_P5E.1_K5.1_C5.1_H5.1_A5.1_F5.1_[+9CCCT]_T5.1 (ssRNA)
RNA: UCUCUUUGUAUUAUUCCCUAUCUCUU
B42: Ie_S1_P5E.1_K5.1_C5.1_H5.1_A5.1_[+5TCTCT]_F5.1_T5.1 (ssRNA)
RNA: UCUCUUUGUAUUCUCUUAUUAUCUCUU
B43: Ie_S1_P5E.1_K5.1_C5.1_H5.1_A5.1_F5.1_[+9C]_T5.1 (ssRNA)
RNA: UCUCUUUGUAUUAUUCAUCUCUU
B44: Ie_S1_P5E.1_K5.1_C5.1_H5.1_A5.1_F5.1_[+8CCT]_T5.1 (ssRNA)
RNA: UCUCUUUGUAUUAUCCUUAUCUCUU
B45: Ie_S1_P5E.1_K5.1_C5.1_H5.1_A5.1_[+6TTC]_F5.1_T5.1 (ssRNA)
RNA: UCUCUUUGUAUUUUCAUUAUCUCUU
B46: Ie_S1_P5E.1_K5.1_C5.1_H5.1_A5.1_[+7TCTCT]_F5.1_T5.1 (ssRNA)
RNA: UCUCUUUGUAUUAUCUCUUUAUCUCUU
B47: Ie_S1_P5E.1_K5.1_C5.1_H5.1_A5.1_[+6CTCTC]_F5.1_T5.1 (ssRNA)
RNA: UCUCUUUGUAUUCUCUCAUUAUCUCUU
B48: Ie_S1_P5E.1_K5.1_C5.1_H5.1_A5.1_[+6TTCCT]_F5.1_T5.1 (ssRNA)
RNA: UCUCUUUGUAUUUUCCUAUUAUCUCUU
B49: Ie_S1_P5E.1_K5.1_C5.1_H5.1_A5.1_F5.1_[+8CCTCT]_T5.1 (ssRNA)
RNA: UCUCUUUGUAUUAUCCUCUUAUCUCUU
B50: Ie_S1_P5E.1_K5.1_C5.1_H5.1_A5.1_F5.1_[+8TCTC]_T5.1 (ssRNA)
RNA: UCUCUUUGUAUUAUUCUCUAUCUCUU
B51: Ie_S1_P5E.1_K5.1_C5.1_H5.1_A5.1_[+7CCTC]_F5.1_T5.1 (ssRNA)
RNA: UCUCUUUGUAUUACCUCUUAUCUCUU
B52: Ie_S1_P5E.1_K5.1_C5.1_H5.1_A5.1_[+7CCTCT]_F5.1_T5.1 (ssRNA)
RNA: UCUCUUUGUAUUACCUCUUUAUCUCUU
B53: Ie_S1_P5E.1_K5.1_C5.1_H5.1_A5.1_F5.1_[+9TCTC]_T5.1 (ssRNA)
RNA: UCUCUUUGUAUUAUUUCUCAUCUCUU
B54: Ie_S1_P5E.1_K5.1_C5.1_H5.1_A5.1_F5.1_[+8CCCTT]_T5.1 (ssRNA)
RNA: UCUCUUUGUAUUAUCCCUUUAUCUCUU
B55: Ie_S1_P5E.1_K5.1_C5.1_H5.1_A5.1_F5.1_[+9TCC]_T5.1 (ssRNA)
RNA: UCUCUUUGUAUUAUUUCCAUCUCUU
B56: Ie_S1_P5E.1_K5.1_C5.1_H5.1_A5.1_F5.1_[+8TCT]_T5.1 (ssRNA)
RNA: UCUCUUUGUAUUAUUCUUAUCUCUU
B57: Ie_S1_P5E.1_K5.1_C5.1_H5.1_A5.1_[+7CC]_F5.1_T5.1 (ssRNA)
RNA: UCUCUUUGUAUUACCUUAUCUCUU
B58: Ie_S1_P5E.1_K5.1_C5.1_H5.1_A5.1_F5.1_[+8CCTC]_T5.1 (ssRNA)
RNA: UCUCUUUGUAUUAUCCUCUAUCUCUU
B59: Ie_S1_P5E.1_K5.1_C5.1_H5.1_A5.1_[+6TTCC]_F5.1_T5.1 (ssRNA)
RNA: UCUCUUUGUAUUUUCCAUUAUCUCUU
B60: Ie_S1_P5E.1_K5.1_C5.1_H5.1_A5.1_F5.1_[+8CTCTC]_T5.1 (ssRNA)
RNA: UCUCUUUGUAUUAUCUCUCUAUCUCUU

These binders were tested against T1, PUF4 RNA-binding domain (assay: Mg; RNA-MaP; 20 mM Na-HEPES pH 7.4, 30 mM KOAc, 0.75 mM MgCl2, 0.1% Tween-20, 5% glycerol, 0.1 mg/mL BSA, 2 mM DTT; 25 C; 0.0125-409.6 nM protein). Conditions: tags: N-His6-TEV cleaved; C-SNAP kept, Cy3B-labelled; label: tethered on chip by stalled RNA polymerase.

Binder	Kd
B1	16.7 nM
B2	30.1 nM
B3	> 2300 nM
B4	2130 nM
B5	15.7 nM
B6	> 2300 nM
B7	8.99 nM
B8	1310 nM
B9	19.9 nM
B10	32.4 nM
B11	26.3 nM
B12	304 nM
B13	350 nM
B14	14 nM
B15	66.2 nM
B16	22.2 nM
B17	17.1 nM
B18	16.8 nM
B19	19.2 nM
B20	19.4 nM

Binder	Kd
B21	120 nM
B22	15 nM
B23	15.7 nM
B24	209 nM
B25	14.3 nM
B26	13.4 nM
B27	33.5 nM
B28	8.84 nM
B29	30.3 nM
B30	15.6 nM
B31	28.6 nM
B32	143 nM
B33	33.8 nM
B34	18.2 nM
B35	30.9 nM
B36	25.5 nM
B37	98.9 nM
B38	60.4 nM
B39	37.3 nM
B40	13.8 nM

Binder	Kd
B41	16.2 nM
B42	29.4 nM
B43	25.3 nM
B44	20.7 nM
B45	40.7 nM
B46	40.6 nM
B47	84.4 nM
B48	26.7 nM
B49	23.1 nM
B50	17.8 nM
B51	428 nM
B52	412 nM
B53	16.3 nM
B54	23.1 nM
B55	20.4 nM
B56	16.7 nM
B57	76.7 nM
B58	31.9 nM
B59	51.8 nM
B60	21.4 nM
